T1: Irr (Bradyrhizobium japonicum, UniProt O85719 1-163)
T1 sequence: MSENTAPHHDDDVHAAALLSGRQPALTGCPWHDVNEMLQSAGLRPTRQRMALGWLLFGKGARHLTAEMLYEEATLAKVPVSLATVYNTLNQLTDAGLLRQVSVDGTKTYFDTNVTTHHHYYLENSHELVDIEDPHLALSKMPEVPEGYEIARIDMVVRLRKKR


What follows are binders tested against T1, Irr (assay: EMSA).

Binder	binding result
bll5796 ICE-like probe (dsDNA) DNA 1: CAGGAATTCGATAGCTTAGAACGCTTCTATGCCGACCTC DNA 2: GTCGAGGTCGGCATAGAAGCGTTCTAAGCTATCGAATTC	binds
non-specific pSK control (dsDNA) DNA 1: CAGGAATTCGATATCAAGCTTATCGATACCGTCGACCTC DNA 2: GTCGAGGTCGACGGTATCGATAAGCTTGATATCGAATTC	no binding
blr3904 ICE-like probe (dsDNA) DNA 1: CAGGAATTCGATACTTTAGAACCGTTTGAAACTGACCTC DNA 2: GTCGAGGTCAGTTTCAAACGGTTCTAAAGTATCGAATTC	binds
